In the series the test system is Escherichia coli TOP10. Briefly: shrunken log2 fold change of peptide-encoding DNA abundance (4.5 h post-induction vs induction); higher = less antimicrobial activity (less host growth inhibition). Conditions: time post-induction: 4.5 h; library: site-saturation at positions 5, 18, 19, 20.
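Also: peptides expressed intracellularly from a pBAD plasmid library in pooled LB shake-flask culture, induced with 0.3% L-arabinose, DNA abundance read by NGS, three biological replicates, DESeq2 with apeglm shrinkage.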

In the case of RRIRTRPPRLPRPRPRPSHEPRP, the “shrunken log2 fold change” value is -0.299. For RRIRDRPPRLPRPRPRPLEEPRP, the “shrunken log2 fold change” value came to 0.0347. Then RRIRRRPPRLPRPRPRPPTMPRP, with 0.374; and RRIRERPPRLPRPRPRPWWMPRP, with -0.436. Then RRIRCRPPRLPRPRPRPFFYPRP, with -0.32. The value for RRIRFRPPRLPRPRPRPIYNPRP was -0.624. For the sequence RRIRRRPPRLPRPRPRPGSAPRP, the “shrunken log2 fold change” value was found to be 0.378. The value for RRIRFRPPRLPRPRPRPVQGPRP was -0.169. Then RRIRSRPPRLPRPRPRPHFAPRP, with 0.0285; and RRIRRRPPRLPRPRPRPENWPRP, with 0.153. Consider RRIRNRPPRLPRPRPRPGHKPRP, for which the “shrunken log2 fold change” value was found to be 0.0903. The value for RRIRFRPPRLPRPRPRPTKLPRP was -0.494. As for RRIRSRPPRLPRPRPRPMIYPRP, the “shrunken log2 fold change” value is -0.257. The value for RRIRQRPPRLPRPRPRPRYMPRP was -0.0938; that for RRIRERPPRLPRPRPRPYQFPRP was -0.159. For the sequence RRIRHRPPRLPRPRPRPSMFPRP, the “shrunken log2 fold change” value was -0.163. The value for RRIRRRPPRLPRPRPRPRGMPRP was 0.907; that for RRIRYRPPRLPRPRPRPVGYPRP was -0.152; that for RRIRVRPPRLPRPRPRPVFAPRP was 0.217. The value for RRIRYRPPRLPRPRPRPAQPPRP was -0.0284; that for RRIRVRPPRLPRPRPRPPFNPRP was -0.303; that for RRIRTRPPRLPRPRPRPWIKPRP was -0.231. Turning to RRIRHRPPRLPRPRPRPHEPPRP, the “shrunken log2 fold change” value was -0.0274. Then RRIRQRPPRLPRPRPRPSWYPRP, with -0.0733; and RRIRFRPPRLPRPRPRPCKTPRP, with 0.00592. Then RRIRFRPPRLPRPRPRPAEMPRP, with 0.00299; and RRIRARPPRLPRPRPRPACAPRP, with 0.922; and RRIRIRPPRLPRPRPRPNMKPRP, with -0.625. The value for RRIRLRPPRLPRPRPRPSCDPRP was -0.417; that for RRIRNRPPRLPRPRPRPQCYPRP was -0.136; that for RRIRARPPRLPRPRPRPIGQPRP was 0.34. RRIRSRPPRLPRPRPRPHRRPRP: the “shrunken log2 fold change” value was 0.0441.

Take RRIRFRPPRLPRPRPRPTMIPRP: the “shrunken log2 fold change” value is -0.941. Then RRIRKRPPRLPRPRPRPIRKPRP, with 0.092; and RRIRWRPPRLPRPRPRPCPGPRP, with -0.218. Then RRIRSRPPRLPRPRPRPAGIPRP, with 0.138.

On to RRIRFRPPRLPRPRPRPHFMPRP, for which the “shrunken log2 fold change” value is -0.538. The value for RRIRFRPPRLPRPRPRPLKRPRP was -0.227.

On to RRIRDRPPRLPRPRPRPGTCPRP, for which the “shrunken log2 fold change” value was -0.0724. The value for RRIRERPPRLPRPRPRPYPAPRP was -0.544; that for RRIRGRPPRLPRPRPRPEKEPRP was 0.0374; that for RRIRDRPPRLPRPRPRPHSMPRP was -0.293.

Take RRIRMRPPRLPRPRPRPQRHPRP: the “shrunken log2 fold change” value was 0.348. The value for RRIRMRPPRLPRPRPRPECGPRP was 2.7. The value for RRIRWRPPRLPRPRPRPLFKPRP was -0.242; that for RRIRGRPPRLPRPRPRPGPTPRP was 1.51. The value for RRIRFRPPRLPRPRPRPIVAPRP was -0.112. Turning to RRIRKRPPRLPRPRPRPCDVPRP, the “shrunken log2 fold change” value was 0.0144.

Take RRIRVRPPRLPRPRPRPMRKPRP: the “shrunken log2 fold change” value was found to be 4.33.

Consider RRIRVRPPRLPRPRPRPNCTPRP, for which the “shrunken log2 fold change” value is -0.0535. The value for RRIRQRPPRLPRPRPRPDVYPRP was 0.0517; that for RRIRCRPPRLPRPRPRPIPLPRP was 0.148; that for RRIRTRPPRLPRPRPRPHSGPRP was -0.166. Then RRIRPRPPRLPRPRPRPHMRPRP, with 0.0614; and RRIRERPPRLPRPRPRPPCNPRP, with -0.392. Regarding RRIRMRPPRLPRPRPRPGAYPRP, the “shrunken log2 fold change” value was 0.0666. The value for RRIRERPPRLPRPRPRPTPVPRP was 0.059; that for RRIRQRPPRLPRPRPRPFLEPRP was -0.155; that for RRIRPRPPRLPRPRPRPQMFPRP was 0.161. The value for RRIRSRPPRLPRPRPRPHTFPRP was -1.36; that for RRIRERPPRLPRPRPRPNEMPRP was 0.0665. RRIRWRPPRLPRPRPRPQYEPRP: the “shrunken log2 fold change” value was determined as 0.0857. The value for RRIRSRPPRLPRPRPRPYCKPRP was -0.327; that for RRIRYRPPRLPRPRPRPSRPPRP was -0.084. The value for RRIRIRPPRLPRPRPRPPPRPRP was 0.929. Then RRIRTRPPRLPRPRPRPKARPRP, with 0.0672. In the case of RRIRVRPPRLPRPRPRPYEHPRP, the “shrunken log2 fold change” value is -0.118.

In the case of RRIRQRPPRLPRPRPRPCWMPRP, the “shrunken log2 fold change” value was -0.408. In the case of RRIRGRPPRLPRPRPRPPNKPRP, the “shrunken log2 fold change” value worked out at 0.528. On to RRIRARPPRLPRPRPRPLQTPRP, for which the “shrunken log2 fold change” value is 0.0966. Then RRIRGRPPRLPRPRPRPLAKPRP, with 1.29. Then RRIRWRPPRLPRPRPRPSRIPRP, with -0.338; and RRIRTRPPRLPRPRPRPEQLPRP, with 0.117; and RRIRQRPPRLPRPRPRPCFNPRP, with -0.161. Then RRIRVRPPRLPRPRPRPLMAPRP, with 0.049; and RRIRTRPPRLPRPRPRPAFIPRP, with -0.512; and RRIRKRPPRLPRPRPRPTKKPRP, with 0.0465. RRIRMRPPRLPRPRPRPRQVPRP: the “shrunken log2 fold change” value is 0.388. Then RRIRPRPPRLPRPRPRPICEPRP, with 0.227. Take RRIRSRPPRLPRPRPRPNSAPRP: the “shrunken log2 fold change” value is -0.35.

As to RRIRCRPPRLPRPRPRPYLCPRP, the “shrunken log2 fold change” value was -0.455. The value for RRIRKRPPRLPRPRPRPCHTPRP was 0.0319; that for RRIRDRPPRLPRPRPRPNYTPRP was -0.771; that for RRIRFRPPRLPRPRPRPNTGPRP was -0.165. For RRIRPRPPRLPRPRPRPSCVPRP, the “shrunken log2 fold change” value is -0.368.

For the sequence RRIRIRPPRLPRPRPRPYYIPRP, the “shrunken log2 fold change” value is -0.552. Then RRIRYRPPRLPRPRPRPWLPPRP, with 0.1; and RRIRYRPPRLPRPRPRPNAAPRP, with 0.216; and RRIRARPPRLPRPRPRPMMHPRP, with 0.184. Regarding RRIRSRPPRLPRPRPRPEYFPRP, the “shrunken log2 fold change” value is -1.04.

For the sequence RRIRYRPPRLPRPRPRPTIRPRP, the “shrunken log2 fold change” value is -0.336.
